Test results from the supplement of paper PMC10126150.
± gives the standard deviation of the averaged measurements.

Tested on: ATP
Assay: switch fluorescence ratio, 500 uM ATP over buffer (Cy3 cluster intensity, sum of 5 cycles each) (fold (ratio)); higher = stronger signal-on switching upon ATP binding; sequences stand for … in TCGTCGGCAGCGTCAGATGTGTATAAGAGACAGTTTTTTTTTTTTTTTTTTTTTTTTT…TC
Conditions: aptamer strand: ATP DNA aptamer (quencher-CACCTGGGGGAGTATTGCGGAGGAAGG + anchor), 100 nM annealed; ATP concentration: 500 uM
Summary of the method: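 Five buffer/ATP imaging cycles were run on Cy3-labelled switching-strand clusters on a modified Illumina MiSeq flow-cell, with NaOH stripping and re-annealing between cycles. In each cycle, clusters annealed to 100 nM quencher-labelled ATP aptamer were imaged in selection buffer, then after 15 min with 500 uM ATP at 22 °C. Per cluster, the fluorescence ratio is summed target-cycle over summed buffer-cycle Cy3 intensity, averaged per switch-domain sequence. Only clusters within 100-1000 RFU were kept.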
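Note: ATP exposure 15 min at 22 °C before imaging.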

ATTGGGAGGA was tested, and the switch fluorescence ratio was 1 ± 0.014.

TTTTCTATTG showed a switch fluorescence ratio of 1 ± 0.044.

Work on AGGAAGCGGG yielded a switch fluorescence ratio of 1.0224 ± 0.00031.

Work on TCCGGTTTCG yielded a switch fluorescence ratio of 1.02 ± 0.039.

Sequence GCTCTTAGTT has a switch fluorescence ratio of 0.992 ± 0.018.

With CAGGCGGGGA the switch fluorescence ratio was 1.004 ± 0.0074.

Sequence TTCAAAGAGT has a switch fluorescence ratio of 0.994 ± 0.019.

Sequence TTTTGTGGAC has a switch fluorescence ratio of 0.996 ± 0.034.

For CCTGTGATTC, the switch fluorescence ratio was 1.23 ± 0.058.

CACGGGTGGC gave a switch fluorescence ratio of 1.152 ± 0.011.

In the case of TGGTTTATTT, the switch fluorescence ratio is reported as 0.976 ± 0.01.

AGTTCAGTAT was tested, and the switch fluorescence ratio was 0.983 ± 0.019.

AAAGATCGTT gave a switch fluorescence ratio of 0.9799 ± 0.0055.

Work on AGAATGAGGT yielded a switch fluorescence ratio of 0.98 ± 0.03.

Work on ACGTTATTTT yielded a switch fluorescence ratio of 1.126 ± 0.0061.

TGATGGCCTG gave a switch fluorescence ratio of 0.986 ± 0.067.

With GGATATTCCA the switch fluorescence ratio was 1.01 ± 0.067.

TTAACAGTGT gave a switch fluorescence ratio of 0.964 ± 0.035.

Work on ATCAAATATC yielded a switch fluorescence ratio of 1.036 ± 0.0086.

CATCTGATTA gave a switch fluorescence ratio of 0.98832 ± 0.00039.

For AGGAAGACAA, the switch fluorescence ratio was 1.03 ± 0.028.

With AGTATAACGA the switch fluorescence ratio was 1.06 ± 0.016.

Sequence TGGCCCTTTT has a switch fluorescence ratio of 1.07 ± 0.13.

For AGGGAGTCTT, the switch fluorescence ratio was 0.971 ± 0.052.

ATGACGGGGT was tested, and the switch fluorescence ratio was 1.05 ± 0.085.

For GATTGTGAT, the switch fluorescence ratio was 1.01 ± 0.04.

In the case of GCAAAATCTG, the switch fluorescence ratio is reported as 1.04 ± 0.06.

With GGGTGTTTGG the switch fluorescence ratio was 1.03 ± 0.026.

With AACATAAAAA the switch fluorescence ratio was 1.26 ± 0.4.

GCGAGATCTT gave a switch fluorescence ratio of 0.968 ± 0.015.

For CCGGATTATA, the switch fluorescence ratio was 1.046 ± 0.0059.

TGCTGGCGGC gave a switch fluorescence ratio of 0.982 ± 0.03.

AAGGCGGATA was tested, and the switch fluorescence ratio was 0.96 ± 0.013.

TAGAGCTTAG showed a switch fluorescence ratio of 0.9812 ± 0.0037.

Work on TGTATTTGGG yielded a switch fluorescence ratio of 0.991 ± 0.013.

GGGGTAGGTG gave a switch fluorescence ratio of 1.08 ± 0.068.

For TCGAGCCCCA, the switch fluorescence ratio was 1.04 ± 0.087.

Work on GAGGGTCGTG yielded a switch fluorescence ratio of 0.9629 ± 0.0013.

CTGGTATAGT was tested, and the switch fluorescence ratio was 1.03 ± 0.03.

In the case of GGGGGATGGA, the switch fluorescence ratio is reported as 1.0016 ± 0.0002.

GTTAGATTGA gave a switch fluorescence ratio of 0.96 ± 0.041.

CTTAGAAAGC was tested, and the switch fluorescence ratio was 1.05 ± 0.022.

TTTTCGCTGG gave a switch fluorescence ratio of 1.01 ± 0.049.

Sequence AGTTAGGGGT has a switch fluorescence ratio of 0.987 ± 0.02.

Work on GGTAGTCGGG yielded a switch fluorescence ratio of 0.968 ± 0.014.

CGAGTAGGGA showed a switch fluorescence ratio of 0.995 ± 0.021.

TCCCGAGGGG gave a switch fluorescence ratio of 1.083 ± 0.01.

GTAGTCTTAG showed a switch fluorescence ratio of 0.9943 ± 0.0097.

TTAAGGAAAA gave a switch fluorescence ratio of 1.04 ± 0.071.

In the case of TTTCAGACAG, the switch fluorescence ratio is reported as 0.9921 ± 0.0014.

With ACTGTAATCC the switch fluorescence ratio was 1.16 ± 0.046.

For GAATGTTATT, the switch fluorescence ratio was 1.001 ± 0.0065.

GGTAATTTAG gave a switch fluorescence ratio of 1.02 ± 0.015.

For TTTTTGCGTT, the switch fluorescence ratio was 0.976 ± 0.037.

With ATCATATTCG the switch fluorescence ratio was 0.99 ± 0.02.

TTGGCATGTT was tested, and the switch fluorescence ratio was 1.005 ± 0.0093.

With ACGGGGAGTT the switch fluorescence ratio was 1.05 ± 0.031.

For TCGTGCGCTG, the switch fluorescence ratio was 0.997 ± 0.079.

TACGGGAGGC was tested, and the switch fluorescence ratio was 1.02 ± 0.032.

For TTTCATTCTT, the switch fluorescence ratio was 1 ± 0.033.

Sequence TTTTGGTTTC has a switch fluorescence ratio of 1.05 ± 0.11.

TAGGAATCCA gave a switch fluorescence ratio of 0.999 ± 0.012.

In the case of TGTTTGAGGT, the switch fluorescence ratio is reported as 0.999 ± 0.033.

GTAAGTAGGA was tested, and the switch fluorescence ratio was 1 ± 0.037.

Sequence TTTTCTGACG has a switch fluorescence ratio of 1.03 ± 0.02.

TGGTTTTAGG gave a switch fluorescence ratio of 0.99 ± 0.029.

Work on AGAGGAGGGT yielded a switch fluorescence ratio of 1.01 ± 0.017.

For TAGGAGGGCT, the switch fluorescence ratio was 0.985 ± 0.049.

GAGTCGGTTA showed a switch fluorescence ratio of 0.98 ± 0.045.

AGGCGGGACA gave a switch fluorescence ratio of 1.025 ± 0.0082.

In the case of TTGCAGCTCA, the switch fluorescence ratio is reported as 1.78 ± 1.1.

For TTGCTTTTTG, the switch fluorescence ratio was 0.984 ± 0.064.

CATTCAGTCG was tested, and the switch fluorescence ratio was 1 ± 0.026.

In the case of TGAGGTGTTG, the switch fluorescence ratio is reported as 1.01 ± 0.063.

For AGGTGCAGCA, the switch fluorescence ratio was 1.06 ± 0.15.

Sequence TCGATTCGAT has a switch fluorescence ratio of 1.35 ± 0.57.

GAGCTATTCG was tested, and the switch fluorescence ratio was 1.01 ± 0.047.

TTGCAATTTT gave a switch fluorescence ratio of 1.36 ± 0.46.

Work on GGTAATTTGA yielded a switch fluorescence ratio of 0.989 ± 0.024.

GACGTTCGGC gave a switch fluorescence ratio of 0.991 ± 0.026.

ATTCTCTTAT was tested, and the switch fluorescence ratio was 1.02 ± 0.059.

GGCCCATAGC was tested, and the switch fluorescence ratio was 0.986 ± 0.018.

Work on GATTCAGGGT yielded a switch fluorescence ratio of 1 ± 0.024.

GGGTTAGGTC was tested, and the switch fluorescence ratio was 1.02 ± 0.013.

CTTCAGGAGC was tested, and the switch fluorescence ratio was 1.69 ± 0.11.

In the case of GGGGTTATGT, the switch fluorescence ratio is reported as 0.979 ± 0.021.

GAGCTGTATG was tested, and the switch fluorescence ratio was 1.03 ± 0.014.

Sequence CGGTCCGGTT has a switch fluorescence ratio of 0.9862 ± 0.0018.

Sequence TGTTCTAGA has a switch fluorescence ratio of 0.987 ± 0.053.

GCTAATTGCA showed a switch fluorescence ratio of 1.03 ± 0.057.

GGCCGGGGCT showed a switch fluorescence ratio of 1.01 ± 0.026.

With TTTTCTATTT the switch fluorescence ratio was 0.998 ± 0.018.

With TTAAGGGGCA the switch fluorescence ratio was 1.02 ± 0.035.

TAGGCTTTGG showed a switch fluorescence ratio of 0.97 ± 0.0099.

Sequence CTTGTAGCAG has a switch fluorescence ratio of 1.09 ± 0.021.

For AGACGGTCTG, the switch fluorescence ratio was 0.973 ± 0.0098.

With GGTTGAAATG the switch fluorescence ratio was 0.939 ± 0.072.

TACCTGGTTT gave a switch fluorescence ratio of 1 ± 0.03.

For AGTAAGGGTA, the switch fluorescence ratio was 1.0185 ± 0.00081.

Work on ATCTTTGTTG yielded a switch fluorescence ratio of 0.987 ± 0.018.

With AAAATTTAGC the switch fluorescence ratio was 0.964 ± 0.054.

For TAGTTGGGGC, the switch fluorescence ratio was 1.01 ± 0.026.

TTGAGATTGA showed a switch fluorescence ratio of 1.01 ± 0.02.

With CCGTGTAGGG the switch fluorescence ratio was 1.01 ± 0.034.

ACGTACTATT was tested, and the switch fluorescence ratio was 1.45 ± 0.23.

For TATCATGTGA, the switch fluorescence ratio was 1.01 ± 0.011.

GCTAGAAAGA showed a switch fluorescence ratio of 0.972 ± 0.0073.

In the case of TTGGCATAAG, the switch fluorescence ratio is reported as 1.16 ± 0.28.

For GGGGTAATCA, the switch fluorescence ratio was 0.999 ± 0.018.

For GGCGGGGGAA, the switch fluorescence ratio was 1.01 ± 0.059.

In the case of CTTAACAGAA, the switch fluorescence ratio is reported as 0.9912 ± 0.0059.

ATAAAAAGTT gave a switch fluorescence ratio of 0.984 ± 0.034.

ACCGAGGGGG showed a switch fluorescence ratio of 1.02 ± 0.041.

CGGGTGCGGG gave a switch fluorescence ratio of 1.02 ± 0.038.

With GTGGACGTTT the switch fluorescence ratio was 1.02 ± 0.057.

GCGGGTGAGG was tested, and the switch fluorescence ratio was 1.02 ± 0.026.

TGCATTCGTT was tested, and the switch fluorescence ratio was 1.008 ± 0.009.

CGAGGACGGG gave a switch fluorescence ratio of 1 ± 0.029.

Sequence ACGCAACGCC has a switch fluorescence ratio of 1.6634 ± 0.0003.

Sequence TTTGTTGGGA has a switch fluorescence ratio of 1.02 ± 0.013.

With CCTTGTGGGA the switch fluorescence ratio was 0.983 ± 0.011.

TAAAGTAATT gave a switch fluorescence ratio of 0.991 ± 0.039.

AAAGGAGTA showed a switch fluorescence ratio of 1.01 ± 0.037.

Work on ATCGACATTA yielded a switch fluorescence ratio of 1.01 ± 0.017.

In the case of TCAAGGATGT, the switch fluorescence ratio is reported as 1 ± 0.032.

In the case of TCAGTTTGGA, the switch fluorescence ratio is reported as 1.01 ± 0.018.

TGTTGGGTTG showed a switch fluorescence ratio of 0.999 ± 0.015.

Work on TGATTAAGGG yielded a switch fluorescence ratio of 0.9752 ± 0.0072.

AAGGCAAGTG showed a switch fluorescence ratio of 0.989 ± 0.054.

CAGGATAAAT showed a switch fluorescence ratio of 0.979 ± 0.06.

TACCACTTTG gave a switch fluorescence ratio of 1.24 ± 0.29.

Work on CGGACGGTTG yielded a switch fluorescence ratio of 1.01 ± 0.042.

GCTGATATCC showed a switch fluorescence ratio of 1.01 ± 0.048.

GCGAATTAGG showed a switch fluorescence ratio of 0.9719 ± 0.0032.

Work on TCAAGAATGG yielded a switch fluorescence ratio of 1 ± 0.059.

CGGTCGGGCG showed a switch fluorescence ratio of 1.03 ± 0.023.

With GAAATTGAGT the switch fluorescence ratio was 1 ± 0.027.

AATTGGTCGT gave a switch fluorescence ratio of 0.965 ± 0.043.

TATTTTACGC gave a switch fluorescence ratio of 1.01 ± 0.024.

With CTTAAATTGT the switch fluorescence ratio was 1.01 ± 0.011.

TAGTTGAACA showed a switch fluorescence ratio of 1.01 ± 0.021.

Work on CGTATTAGGT yielded a switch fluorescence ratio of 0.9553 ± 0.0086.

Sequence TTTGTTGATT has a switch fluorescence ratio of 0.973 ± 0.022.

ATTATGGGGT gave a switch fluorescence ratio of 1 ± 0.017.

ATTGTCGG gave a switch fluorescence ratio of 0.972 ± 0.028.

Work on TTTTTTATAC yielded a switch fluorescence ratio of 1.02 ± 0.051.

AGTAAAATGT gave a switch fluorescence ratio of 1 ± 0.021.

Sequence AGTGTGATCA has a switch fluorescence ratio of 0.9859 ± 0.008.

With TTTGGTTGCC the switch fluorescence ratio was 1.05 ± 0.085.

In the case of GTTGGCATGG, the switch fluorescence ratio is reported as 1.025 ± 0.0044.

GATTTGGGGA showed a switch fluorescence ratio of 0.988 ± 0.028.

In the case of TCAAAGGGGT, the switch fluorescence ratio is reported as 1.052 ± 0.0047.

For TTTGGCTAAG, the switch fluorescence ratio was 0.976 ± 0.027.

For TGGGATTGGC, the switch fluorescence ratio was 1.01 ± 0.11.

ATATGGGTAC showed a switch fluorescence ratio of 1.034 ± 0.0052.

ACGGTTTTAC showed a switch fluorescence ratio of 1.12 ± 0.012.

AAGGACTTGG gave a switch fluorescence ratio of 1.01 ± 0.014.
